Experimental data published in patent US20140249076A1 (AstraZeneca / MedImmune, published 2014).
Numbered stars: 1 amine (or outer) side, 2 acyl side, 3 side chain; on linkers, the order of the positions; unused ones are H or OH. Side chains are listed from the residue outwards. Ends that are not written are not given here. γGlu = O=C(O)[C@H](CCC(=O)[*:2])N[*:1]

B1: Cmpd 17 (peptide)
peptide: KCNTATCALQRLAQELHRLQTYPRTNVGSNTY-NH2
modifications: ends and bridges not checked
notes: Parent peptide of the fatty acid acylated compounds
B2: Cmpd 195 (Kε-(γ-Glu(Nα-C16-Chain))-Cmpd 17) (peptide)
peptide: K([γGlu-C16‑Chain])KCNTATCALQRLAQELHRLQTYPRTNVGSNTY-NH2
modifications: ends and bridges not checked
notes: The description is read as an extra acylated Lys placed before the N-terminus of Cmpd 17

The binders below were run against T1, CGRP receptor (SK-N-MC cell membranes) (UniProt Q16602 23-461; O60894 27-148) (assay: displacement of 125I-human CGRP from SK-N-MC cell membranes).
T1 construct: whole, on cells
T1 sequence (Q16602 23-461, chain 1 of 2): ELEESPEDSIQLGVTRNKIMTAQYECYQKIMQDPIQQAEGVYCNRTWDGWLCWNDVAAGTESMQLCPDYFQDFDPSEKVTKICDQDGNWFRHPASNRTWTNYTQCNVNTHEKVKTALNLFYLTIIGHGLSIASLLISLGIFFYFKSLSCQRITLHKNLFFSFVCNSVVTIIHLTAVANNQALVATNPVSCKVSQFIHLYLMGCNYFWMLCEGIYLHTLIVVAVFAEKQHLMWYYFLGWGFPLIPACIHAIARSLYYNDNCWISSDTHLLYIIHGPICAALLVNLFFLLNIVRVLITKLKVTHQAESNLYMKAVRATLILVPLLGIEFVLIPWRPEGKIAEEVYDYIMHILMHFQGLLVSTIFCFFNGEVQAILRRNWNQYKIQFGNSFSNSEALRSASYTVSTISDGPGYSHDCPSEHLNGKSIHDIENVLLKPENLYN
T1 sequence (O60894 27-148, chain 2 of 2): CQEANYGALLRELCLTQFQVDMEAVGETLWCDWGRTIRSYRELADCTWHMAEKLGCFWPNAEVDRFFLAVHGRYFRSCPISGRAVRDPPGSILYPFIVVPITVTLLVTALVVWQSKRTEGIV
Source text: Dried glass fiber plates were combined with scintillant and counted on a multiwell Perkin Elmer scintillation counter.

| IC50 [nM] | Binder |
| --- | --- |
| 1.26 | B1 |
| 4.45 | K([γGlu-C16‑Chain])CNTATCALQRLAQELHRLQTYPRTNVGSNTY-NH2 (ends and bridges not checked, Lys 1 is already present in Cmpd 17) [Cmpd 192 ([K^1ε-(γ-Glu(Nα-C16-Chain))]-Cmpd 17)] |
| 0.603 | B2 |

The binders below were run against T2, amylin receptor (RNA membranes) (assay: displacement of 125I-rat amylin from RNA membranes).
T2 construct: Membrane preparation
Source text: Dried glass fiber plates were combined with scintillant and counted on a multi-well Perkin Elmer scintillation counter, as well known in the art.

| IC50 [nM] | Binder |
| --- | --- |
| 0.028 | B1 |
| 0.518 | K([γGlu-C16‑Chain])CNTATCALQRLAQELHRLQTYPRTNVGSNTY-NH2 (ends and bridges not checked, Lys 1 is already present in Cmpd 17) [Cmpd 192 ([K^1ε-(γ-Glu(Nα-C16-Chain))]-Cmpd 17)] |
| 0.137 | B2 |
